From US20250145708A1 (GOOD T CELLS, published 2025)

How the values were obtained:
Assay in all cases: Lrig-1 peptide microarray (15-mers, 14 aa overlap), H6 at 1, 10 and 100 µg/ml
[1] = biological target: T1, Lrig-1 epitope peptide SEQ ID NO: 18
T1 construct: it was not itself a separately tested peptide
T1 peptide: WTRSLNLSYNKL
Description: (§1) Pre-staining of a Lrig-1 peptide microarray copy using secondary and control antibodies in incubation buffer was performed to identify whether they can interact with antigen-derived peptides that can interfere with the main assays. Subsequent incubation of other Lrig-1 peptide microarray copies with the H6 monoclonal antibody of Production Example 8 (1 μg/ml, 10 μg/ml, and 100 μg/ml) in incubation buffer was followed by staining with secondary and control antibodies. Read-out was performed at a scanning intensity of 7/7 (red/green) using the LI-COR Odyssey Imaging System. Quantification of spot intensities and peptide annotation were based on the 16-bit gray scale tiff files. Microarray image analysis was done with PepSlide® Analyzer.

[2] = biological target: T2, Lrig-1 epitope peptide SEQ ID NO: 25
T2 peptide: FGHEGRYQCVITNHF
Description: as §1

[3] = biological target: T3, Lrig-1 epitope peptide SEQ ID NO: 22
T3 peptide: NSIARIHRKGW
Description: as §1

[4] = biological target: T4, Lrig-1 epitope peptide SEQ ID NO: 23
T4 peptide: WLPPWLIGRMLQAF
Description: as §1

[5] = biological target: T5, Lrig-1 epitope peptide SEQ ID NO: 28
T5 peptide: FFITDVKIDDAGVYS
Description: as §1

[6] = biological target: T6, Lrig-1 epitope peptide SEQ ID NO: 26
T6 peptide: RLTVNVLPSFTKTPH
Description: as §1

[7] = biological target: T7, Lrig-1 epitope peptide SEQ ID NO: 21
T7 peptide: DLNRNRIRLIEGLTF
Description: as §1

[8] = biological target: T8, Lrig-1 epitope peptide SEQ ID NO: 19
T8 peptide: TEVRNTCFPHGPPI
Description: as §1

[9] = biological target: T9, Lrig-1 epitope peptide SEQ ID NO: 27
T9 peptide: RRMHVMPDDDVFF
Description: as §1

[10] = biological target: T10, Lrig-1 epitope peptide SEQ ID NO: 24
T10 peptide: RQVTFGHEGRY
Description: as §1

[11] = biological target: T11, Lrig-1 epitope peptide SEQ ID NO: 20
T11 peptide: RLTQLDLNRNRIR
Description: as §1

Measured: binding result

B1: H6 clone monoclonal antibody (Production Example 8) (antibody, mouse IgG2a, V domains shown)
VH: EVQLLESGGGLVQPGGSLRLSCAASGFTFSNYAMSWVRQAPGKGLEWVSVISHGGGSTYYADSVKGRFTISRDNSKNTLYLQMNSLRAEDTAVYYCARVISNCHLGVCYYSNGMDVWGQGTLVTVSS
VL: QSVLTQPPSASGTPGQRVTISCSGSSSNIGNNDVYWYQQLPGTAPKLLIYSDSQRPSGVPDRFSGSKSGTSASLAISGLRSEDEADYYCGTWDYSLSGYVFGGGTKLTVLR
notes: also called H6 monoclonal antibody
binds: all assays above
